These results are taken from US20110020379A1.

Positions of bridges follow the written chain, without caps; N, C: chain ends. No end group written: not given here.

Assay [1] has as its target bovine serum albumin (bovine) (UniProt P02769). Nature of the assay: phage ELISA, 10^10 phagemid per well, BSA-only wells.
Assay [2] deals with unrelated control antibody. Nature of the assay: phage ELISA, 10^8 phagemid per well, wells coated with control mAb. For orientation: An ELISA detects its analyte on a solid surface through an enzyme-linked reagent.
Assay [3] has as its target bovine serum albumin (bovine) (UniProt P02769). Briefly: phage ELISA, 10^8 phagemid per well, BSA-only wells.
Assay [4] addresses unrelated control antibody. Nature of the assay: phage ELISA, 10^9 phagemid per well, wells coated with control mAb.
For assay [5], the target named is unrelated control antibody. Nature of the assay: phage ELISA, 10^10 phagemid per well, wells coated with control mAb.
Assay [6] deals with bovine serum albumin (bovine) (UniProt P02769). Briefly: phage ELISA, 10^9 phagemid per well, BSA-only wells.
Chain of bovine serum albumin (bovine) (P02769 25-607 limits assumed): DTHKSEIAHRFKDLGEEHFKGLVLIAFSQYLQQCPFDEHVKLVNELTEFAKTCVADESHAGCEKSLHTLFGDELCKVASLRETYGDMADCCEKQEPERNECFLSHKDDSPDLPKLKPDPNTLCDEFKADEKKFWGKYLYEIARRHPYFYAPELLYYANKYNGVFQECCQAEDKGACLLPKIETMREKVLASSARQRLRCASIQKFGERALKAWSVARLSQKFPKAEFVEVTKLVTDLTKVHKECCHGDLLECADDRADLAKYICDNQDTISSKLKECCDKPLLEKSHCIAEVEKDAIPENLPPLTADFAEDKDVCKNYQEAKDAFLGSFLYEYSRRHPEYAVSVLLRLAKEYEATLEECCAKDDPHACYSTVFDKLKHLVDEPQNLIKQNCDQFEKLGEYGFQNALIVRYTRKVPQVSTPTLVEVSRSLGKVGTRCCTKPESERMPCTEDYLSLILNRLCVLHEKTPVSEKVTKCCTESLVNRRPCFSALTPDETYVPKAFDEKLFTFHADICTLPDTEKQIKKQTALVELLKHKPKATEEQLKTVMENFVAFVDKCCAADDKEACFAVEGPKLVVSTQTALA

B1: phagemid CS1-9p (peptide)
peptide: CSGLYPWDMFRCS
modifications: disulfide 1-12 (inferred)
As to B1, the ELISA (absorbance units) (absorbance units) in assay [1] was 0.221; in assay [2], 0.209; in assay [3], 0.216; in assay [4], 0.204; in assay [5], 0.213; in assay [6] it was 0.22.

B2: phagemid CS1-2p (peptide)
peptide: CSLFYLWDQDRCS
modifications: disulfide 1-12 (inferred)
With B2, the ELISA (absorbance units) (absorbance units) was 0.327 in assay [1]; 0.188 in assay [2]; 0.264 in assay [3]; 0.199 in assay [4]; 0.228 in assay [5]; 0.277 in assay [6].

B3: phagemid CS1-11p (peptide)
peptide: CSFRYQWDMFRCS
modifications: disulfide 1-12 (inferred)
For the molecule B3, the ELISA (absorbance units) (absorbance units) is 0.304 in assay [1]; 0.252 in assay [2]; 0.268 in assay [3]; 0.258 in assay [4]; 0.242 in assay [5]; 0.278 in assay [6].

B4: phagemid CS1-29p (peptide)
peptide: CSGLYPWDYFMCS
modifications: disulfide 1-12 (inferred)
B4: the ELISA (absorbance units) (absorbance units) in assay [1] amounted to 0.141; in assay [2], 0.125; in assay [3], 0.127; in assay [4] it was 0.136; in assay [5], 0.148; in assay [6] it was 0.147.

B5: phagemid CS1-31p (peptide)
peptide: CSFFYSLCYCWCS
modifications: disulfide (positions not given here); also: disulfide cyclised, pairing of the four Cys not given here
As for B5, the ELISA (absorbance units) (absorbance units) stood at 0.112 in assay [1]; 0.116 in assay [2]; 0.109 in assay [3]; 0.118 in assay [4]; 0.125 in assay [5]; 0.114 in assay [6].

B6: phagemid CS1-6p (peptide)
peptide: CSFRYLWDQDRCS
modifications: disulfide 1-12 (inferred)
On to B6, for which the ELISA (absorbance units) (absorbance units) is 0.275 in assay [1]; 0.173 in assay [2]; 0.254 in assay [3]; 0.172 in assay [4]; 0.203 in assay [5]; 0.27 in assay [6].
